{
  "source": "paper PMC5737894",
  "key": {"DRB4C": {"target": "T1, DRB4C (Arabidopsis thaliana, UniProt Q8H1D4 154-355)", "T1 sequence": "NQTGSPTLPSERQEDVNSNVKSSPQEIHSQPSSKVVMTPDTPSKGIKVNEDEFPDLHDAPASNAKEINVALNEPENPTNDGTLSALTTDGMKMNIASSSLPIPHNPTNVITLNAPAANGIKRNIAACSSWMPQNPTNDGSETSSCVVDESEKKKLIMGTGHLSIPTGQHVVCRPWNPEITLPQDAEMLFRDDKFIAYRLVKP", "assay": "EMSA"}, "DRB4D1D2 H32A/K133A": {"target": "T2, DRB4D1D2 H32A/K133A (Arabidopsis thaliana, UniProt Q8H1D4 1-153, H32A;K133A)", "T2 sequence": "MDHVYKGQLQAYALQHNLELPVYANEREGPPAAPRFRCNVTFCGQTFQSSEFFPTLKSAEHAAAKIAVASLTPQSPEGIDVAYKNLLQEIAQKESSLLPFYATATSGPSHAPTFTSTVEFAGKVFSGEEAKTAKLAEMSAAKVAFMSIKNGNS", "assay": "EMSA"}, "DRB4D1D2": {"target": "T3, DRB4D1D2 (Arabidopsis thaliana, UniProt Q8H1D4 1-153)", "T3 sequence": "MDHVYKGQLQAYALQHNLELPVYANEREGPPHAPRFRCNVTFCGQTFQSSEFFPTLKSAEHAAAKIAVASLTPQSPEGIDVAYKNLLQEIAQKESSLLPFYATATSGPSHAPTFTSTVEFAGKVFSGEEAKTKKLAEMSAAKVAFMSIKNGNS", "assay": "ITC"}, "DRB4": {"target": "T4, DRB4 (Arabidopsis thaliana, UniProt Q8H1D4 1-355)", "T4 sequence": "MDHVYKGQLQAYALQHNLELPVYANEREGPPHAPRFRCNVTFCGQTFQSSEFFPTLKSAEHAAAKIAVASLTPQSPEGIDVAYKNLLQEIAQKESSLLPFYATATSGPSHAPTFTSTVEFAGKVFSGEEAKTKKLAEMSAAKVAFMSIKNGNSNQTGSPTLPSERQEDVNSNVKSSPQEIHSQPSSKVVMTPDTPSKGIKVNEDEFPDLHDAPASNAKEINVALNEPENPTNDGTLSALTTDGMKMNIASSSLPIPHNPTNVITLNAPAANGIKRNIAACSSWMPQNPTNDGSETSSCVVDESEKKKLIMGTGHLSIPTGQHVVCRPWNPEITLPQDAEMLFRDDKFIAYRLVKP", "assay": "ITC"}, "DRB4D2D1": {"target": "T5, DRB4D2D1 (Arabidopsis thaliana, UniProt Q8H1D4 1-3+82-150+73-81+4-72, internal_change)", "T5 sequence": "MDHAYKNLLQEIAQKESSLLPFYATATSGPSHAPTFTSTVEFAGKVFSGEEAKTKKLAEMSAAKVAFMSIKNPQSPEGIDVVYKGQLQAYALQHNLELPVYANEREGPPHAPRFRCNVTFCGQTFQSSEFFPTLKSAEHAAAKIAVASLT", "assay": "ITC"}, "DRB4 H32A/K133A": {"target": "T6, DRB4 H32A/K133A (Arabidopsis thaliana, UniProt Q8H1D4 1-355, H32A;K133A)", "T6 sequence": "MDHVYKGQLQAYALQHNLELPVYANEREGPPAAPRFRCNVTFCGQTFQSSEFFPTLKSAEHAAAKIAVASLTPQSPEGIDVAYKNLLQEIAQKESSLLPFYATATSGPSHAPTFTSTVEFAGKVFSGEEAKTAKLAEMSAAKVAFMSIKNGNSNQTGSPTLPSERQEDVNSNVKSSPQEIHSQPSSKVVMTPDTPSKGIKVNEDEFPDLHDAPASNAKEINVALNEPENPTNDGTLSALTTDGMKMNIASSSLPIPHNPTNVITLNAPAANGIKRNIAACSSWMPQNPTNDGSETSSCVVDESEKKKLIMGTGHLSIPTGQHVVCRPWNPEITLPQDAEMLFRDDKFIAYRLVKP", "assay": "EMSA"}},
  "data": [
    {"binder": "80 bp dsRNA (dsRNA) RNA 1: GGGUGCUGUUUCUCGUGUUCGUGUUCGUUUCUCUUCUCUUGUCCUUGUUCUGUUCUCCUUUGUUCGUUCCUGUUCCCCUU RNA 2: AAGGGGAACAGGAACGAACAAAGGAGAACAGAACAAGGACAAGAGAAGAGAAACGAACACGAACACGAGAAACAGCACCC", "values": [
      {"measurement": "binding result", "setting": "DRB4C", "value": "no binding"},
      {"measurement": "binding result", "setting": "DRB4D1D2 H32A/K133A", "value": "no binding"},
      {"measurement": "Kd", "setting": "DRB4D1D2", "value": "400 ± 30", "unit": "nM"},
      {"measurement": "Kd", "setting": "DRB4", "value": "120 ± 40", "unit": "nM"},
      {"measurement": "Kd", "setting": "DRB4D2D1", "value": "4000 ± 400", "unit": "nM"},
      {"measurement": "binding result", "setting": "DRB4 H32A/K133A", "value": "no binding"}
    ]}
  ]
}
